The text below walks through data of paper PMC11665613.

A value given as a limit tells only on which side of the number the result lay.

In the assay the target is MPP8 (M-phase phosphoprotein 8) (UniProt Q99549). Put plainly: cross-linking; photo-crosslinking under UV-B irradiation of recombinant reader (3 or 10 uM CBX1, 5 uM BPTF, 3 uM MPP8) with sulfonium peptide (100 uM or various concentrations), 3 to 20 min; conjugates quantified by HR-MS.
Chain of MPP8 (M-phase phosphoprotein 8) (Q99549 whole entry): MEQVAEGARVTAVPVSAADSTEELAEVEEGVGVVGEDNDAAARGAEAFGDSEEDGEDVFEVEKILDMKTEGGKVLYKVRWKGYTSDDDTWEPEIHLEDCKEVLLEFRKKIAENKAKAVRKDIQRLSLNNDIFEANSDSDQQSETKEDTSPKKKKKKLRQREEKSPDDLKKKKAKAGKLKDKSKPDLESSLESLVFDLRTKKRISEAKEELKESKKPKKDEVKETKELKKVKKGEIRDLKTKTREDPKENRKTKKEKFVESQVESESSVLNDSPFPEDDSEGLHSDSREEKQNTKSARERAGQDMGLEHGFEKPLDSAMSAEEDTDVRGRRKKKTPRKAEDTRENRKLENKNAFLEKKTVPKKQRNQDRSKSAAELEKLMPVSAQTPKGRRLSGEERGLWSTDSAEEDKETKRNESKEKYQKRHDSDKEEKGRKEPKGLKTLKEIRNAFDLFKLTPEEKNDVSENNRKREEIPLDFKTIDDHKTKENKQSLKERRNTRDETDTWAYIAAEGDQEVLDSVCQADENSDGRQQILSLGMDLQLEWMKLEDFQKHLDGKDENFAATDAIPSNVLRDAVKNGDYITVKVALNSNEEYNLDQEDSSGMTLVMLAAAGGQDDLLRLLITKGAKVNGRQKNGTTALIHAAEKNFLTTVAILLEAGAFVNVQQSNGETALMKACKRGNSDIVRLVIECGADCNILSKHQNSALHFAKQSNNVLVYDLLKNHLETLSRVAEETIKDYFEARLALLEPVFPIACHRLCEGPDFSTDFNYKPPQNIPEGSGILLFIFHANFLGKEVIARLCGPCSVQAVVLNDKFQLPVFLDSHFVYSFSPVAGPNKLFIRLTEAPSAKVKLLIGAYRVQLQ

For “H3K9NleCTMS peptide (histone H3 peptide, cysteine at position 9 alkylated to cyclic tetramethylene sulfonium)”, the fold increase of the peptidyl conjugate yield against H3K9NleS+me2 is above 3 fold.
